Laboratory results from paper doi:10.1101/2020.11.11.367672 (bioRxiv, 2020).

T1: Dicer 256-595 domain (human, UniProt Q9UPY3 256-595)
T1 sequence: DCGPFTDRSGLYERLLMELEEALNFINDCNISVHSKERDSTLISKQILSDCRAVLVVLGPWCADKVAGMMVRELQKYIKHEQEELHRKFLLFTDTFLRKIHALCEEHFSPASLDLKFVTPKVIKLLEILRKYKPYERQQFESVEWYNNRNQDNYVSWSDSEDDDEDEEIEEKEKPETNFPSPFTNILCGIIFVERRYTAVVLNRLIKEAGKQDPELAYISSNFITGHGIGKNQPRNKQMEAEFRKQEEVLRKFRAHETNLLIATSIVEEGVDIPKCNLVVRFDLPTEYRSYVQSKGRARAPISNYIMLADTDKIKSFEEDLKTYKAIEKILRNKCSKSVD


Tests used:
Assay in all cases: pull-down
[1] = molecular target: GST (glutathione-S-transferase)-tagged RPAP3 (human, UniProt Q9H6T3 1-665)
Chain of GST (glutathione-S-transferase)-tagged RPAP3 (Q9H6T3 whole entry, the tested form may be a part): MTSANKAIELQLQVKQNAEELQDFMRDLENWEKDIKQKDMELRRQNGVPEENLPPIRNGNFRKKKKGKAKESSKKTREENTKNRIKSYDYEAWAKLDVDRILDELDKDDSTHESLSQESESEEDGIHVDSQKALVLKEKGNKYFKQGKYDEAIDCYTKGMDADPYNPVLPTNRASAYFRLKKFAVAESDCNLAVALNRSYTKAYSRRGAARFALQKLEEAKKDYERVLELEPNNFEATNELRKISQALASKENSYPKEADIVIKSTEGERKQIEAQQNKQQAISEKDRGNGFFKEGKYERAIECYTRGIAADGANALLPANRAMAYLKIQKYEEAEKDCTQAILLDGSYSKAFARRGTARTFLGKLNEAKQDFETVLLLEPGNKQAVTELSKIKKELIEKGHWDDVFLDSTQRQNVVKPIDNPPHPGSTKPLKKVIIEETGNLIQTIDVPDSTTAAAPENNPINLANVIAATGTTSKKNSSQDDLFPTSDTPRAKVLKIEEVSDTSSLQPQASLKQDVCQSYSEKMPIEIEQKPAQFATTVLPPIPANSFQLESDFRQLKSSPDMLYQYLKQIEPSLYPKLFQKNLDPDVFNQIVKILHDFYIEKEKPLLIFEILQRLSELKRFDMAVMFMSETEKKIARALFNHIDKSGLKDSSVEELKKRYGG

[2] = molecular target: RPAP3 TPR1 domain (residues 133-255) (human, UniProt Q9H6T3 133-255)
Chain of RPAP3 TPR1 domain (residues 133-255) (Q9H6T3 133-255): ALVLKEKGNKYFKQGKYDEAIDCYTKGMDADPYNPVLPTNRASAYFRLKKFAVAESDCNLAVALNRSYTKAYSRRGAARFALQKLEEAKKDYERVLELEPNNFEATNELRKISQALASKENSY

[3] = molecular target: T1, Dicer 256-595 domain

Binder	binding result [1]	binding result [2]	binding result [3]
His6-tagged TRBP protein (purified recombinant, GST pull-down) (natural protein) MSEEEQGSGTTTGCGLPSIEQMLAANPGKTPISLLQEYGTRIGKTPVYDLLKAEGQAHQPNFTFRVTVGDTSCTGQGPSKKAAKHKAAEVALKHLKGGSMLEPALEDSSSFSPLDSSLPEDIPVFTAAAAATPVPSVVLTRSPPMELQPPVSPQQSECNPVGALQELVVQKGWRLPEYTVTQESGPAHRKEFTMTCRVERFIEIGSGTSKKLAKRNAAAKMLLRVHTVPLDARDGNEVEPDDDHFSIGVGSRLDGLRNRGPGCTWDSLRNSVGEKILSLRSCSLGSLGALGPACCRVLSELSEEQAFHVSYLDIEELSLSGLCQCLVELSTQPATVCHGSATTREAARGEAARRALQYLKIMAGSK	binds		
His6-tagged TRBP dsRBD3 (262-366) (domain or fragment) GCTWDSLRNSVGEKILSLRSCSLGSLGALGPACCRVLSELSEEQAFHVSYLDIEELSLSGLCQCLVELSTQPATVCHGSATTREAARGEAARRALQYLKIMAGSK		binds	binds
